# Data: publication PMC6628393
# Biological target: Kv2.1 potassium channel (UniProt Q14721)
# Chain of UniProt Q14721 (Q14721 whole entry): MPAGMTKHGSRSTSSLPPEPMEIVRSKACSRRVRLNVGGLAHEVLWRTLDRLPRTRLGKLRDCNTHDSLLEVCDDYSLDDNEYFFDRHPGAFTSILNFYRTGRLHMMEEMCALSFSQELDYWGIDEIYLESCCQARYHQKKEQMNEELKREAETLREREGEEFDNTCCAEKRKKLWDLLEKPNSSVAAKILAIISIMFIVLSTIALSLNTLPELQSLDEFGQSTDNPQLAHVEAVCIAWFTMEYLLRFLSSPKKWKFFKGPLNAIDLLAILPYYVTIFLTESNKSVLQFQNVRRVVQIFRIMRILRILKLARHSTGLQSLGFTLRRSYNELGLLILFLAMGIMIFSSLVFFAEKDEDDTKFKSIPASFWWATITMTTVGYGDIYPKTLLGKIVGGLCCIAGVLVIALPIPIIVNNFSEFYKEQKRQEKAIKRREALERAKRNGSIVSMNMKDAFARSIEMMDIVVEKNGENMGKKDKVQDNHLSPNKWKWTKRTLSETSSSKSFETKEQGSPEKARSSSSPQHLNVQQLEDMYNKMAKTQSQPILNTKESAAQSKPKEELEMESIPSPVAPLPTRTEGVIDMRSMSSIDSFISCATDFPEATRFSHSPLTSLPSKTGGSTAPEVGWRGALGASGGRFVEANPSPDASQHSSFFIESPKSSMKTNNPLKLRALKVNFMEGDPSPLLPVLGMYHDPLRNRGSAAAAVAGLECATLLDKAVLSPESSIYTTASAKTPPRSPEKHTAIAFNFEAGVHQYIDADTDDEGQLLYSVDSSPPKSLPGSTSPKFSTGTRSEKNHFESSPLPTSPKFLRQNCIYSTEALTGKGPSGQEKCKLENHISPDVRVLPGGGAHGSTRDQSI
substance,measurement,value
"MiDCA1, a phospholipase A2 (PLA2) neurotoxin from Micrurus dumerilii carinicauda coral snake venom (enzyme)",inhibition of Kv2.1-mediated current in Xenopus oocytes by 1 μM MiDCA1 (reversible on washout),55%
